The series deals with the molecule itself. Nature of the series: peptide or protein array; MyD88 TIR domain monomer spotted in quadruplicate on nitrocellulose-coated slides; biotinylated MyD88 (25 µg/ml) in 50 mM Hepes, 0.1% Tween, 3% human antibody serum, 2 h at room temperature; detected with streptavidin-Alexa Fluor 647; with or without pre-incubation with EM-163 (100 and 50 µg/ml) or DMSO.

B1: recombinant MyD88 TIR domain (amino acids 157-296) (domain or fragment, human, UniProt Q99836 157-296, looked up)
chain: MPERFDAFICYCPSDIQFVQEMIRQLEQTNYRLKLCVSDRDVLPGTCVWSIASELIEKRCRRMVVVVSDDYLQSKECDFQTKFALSLSPGAHQKRLIPIKYKAMKKEFPSILRFITVCDYTNPCTKSWFWTRLAKALSLP
modifications: biotin (EZ Link Biotin BMCC kit) on the copy in solution; the copy spotted on the slide is not biotinylated
notes: also called MyD88 (157-296); TIR domain protein (monomer); not shown: His, N-terminal, cleaved; MBP, N-terminal, cleaved
For the protein B1, the binding result was “binds”.

The values are drawn from PMC3407147, “Therapeutic Inhibition of Pro-Inflammatory Signaling and Toxicity to Staphylococcal Enterotoxin B by a Synthetic Dimeric BB-Loop Mimetic of MyD88” (PLoS ONE, 2012).
